Measured values from patent US20150147337A1 (Merck Sharp & Dohme, published 2015).
“And” between values parts separate entries of the source, which are not always exact repeats. Equal values may be shown once.

Biological target: T1, Human IL-23 (human, UniProt P29460 23-328)
T1 construct: also called huIL-23
T1 sequence 1: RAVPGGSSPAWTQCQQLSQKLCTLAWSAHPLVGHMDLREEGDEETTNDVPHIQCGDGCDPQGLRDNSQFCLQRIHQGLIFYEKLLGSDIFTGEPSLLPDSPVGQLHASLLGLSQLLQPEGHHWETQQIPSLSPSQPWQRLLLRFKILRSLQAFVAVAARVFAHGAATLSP
T1 sequence 2: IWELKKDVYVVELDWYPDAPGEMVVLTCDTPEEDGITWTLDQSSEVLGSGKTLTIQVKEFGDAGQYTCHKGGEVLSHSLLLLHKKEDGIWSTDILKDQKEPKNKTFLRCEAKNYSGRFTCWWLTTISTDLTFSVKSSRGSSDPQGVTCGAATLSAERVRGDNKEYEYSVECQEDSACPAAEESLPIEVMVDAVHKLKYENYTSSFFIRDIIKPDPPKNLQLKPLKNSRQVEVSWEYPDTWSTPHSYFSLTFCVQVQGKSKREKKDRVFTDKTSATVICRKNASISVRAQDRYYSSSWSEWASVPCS
Assay: ELISA, human IL-23 immobilized on plate, HRP anti-IgG detection, four-parameter fit
Description: Re-dissolved crystalline anti-huIL-23p19 mAb 13B8-b was also compared to the original solution antibody by ELISA. Two different lots of each of solution and re-dissolved crystalline anti-huIL-23p19 mAb 13B8-b were tested for their ability to bind to IL-23. Human IL-23 was immobilized onto an ELISA plate, and serial dilutions of anti-huIL-23p19 mAb 13B8-b (solution or re-dissolved crystalline) were added to the wells. After the plates were washed, bound antibody was detected using an HRP-labeled anti-IgG antibody and a colorimetric substrate. Plates were read in a plate reader and the dose response curves were analyzed using a four-parameter logistic fit. At equilibrium, the EC50 of a saturation binding curve reflects the equilibrium binding dissociation constant (KD), where a higher value represents lower affinity, and a lower value represents higher affinity, of the antibody for the ligand. The potency of the test sample is assessed by comparing binding curves of the test samples to a reference material by the ratio of the EC50's. Potency is expressed as percent of reference material, in this case, selected to be lot #1 of the solution form of anti-huIL-23p19 mAb 13B8-b.

EC50: 71 pM and 106 pM and 73 pM and 116 pM
B1: humanized anti-human IL-23p19 monoclonal antibody 13B8-b (antibody, human IgG1, kappa, V domains shown)
VH: QVQLVQSGAEVKKPGASVKVSCKASGYIFITYWMTWVRQAPGQGLEWMGQIFPASGSADYNEKFEGRVTMTTDTSTSTAYMELRSLRSDDTAVYYCARGGGGFAYWGQGTLVTVSS
VL: DIQMTQSPSSLSASVGDRVTITCRTSENIYSYLAWYQQKPGKAPKLLIYNAKTLAEGVPSRFSGSGSGTDFTLTISSLQPEDFATYYCQHHYGIPFTFGQGTKVEIKR
notes: Full-length IgG1 kappa; It was tested as never-crystallized solution material (two lots) and as antibody re-dissolved from crystals (two lots); also called anti-huIL-23p19 mAb 13B8-b; hu13B8-b
